Test results as given in patent US20180201658A1 (MIT, published 2018).

Tests used:
human Bcl-xL [1] = target: T1, human Bcl-xL (human, UniProt Q07817 1-209); assay: cell-based or functional assay
human Bcl-2 [2] = target: T2, human Bcl-2 (human, UniProt P10415 1-217, limits assumed); assay: cell-based or functional assay
human Bcl-xL [3] = target: T1, human Bcl-xL; assay: fluorescence anisotropy (FIG. 1)
human Bcl-2 [4] = target: T2, human Bcl-2; assay: fluorescence anisotropy (FIG. 1)
human Bcl-w = target: T3, human Bcl-w (human, UniProt Q92843 1-164, limits assumed); assay: fluorescence anisotropy (FIG. 1)
T3 sequence (looked up): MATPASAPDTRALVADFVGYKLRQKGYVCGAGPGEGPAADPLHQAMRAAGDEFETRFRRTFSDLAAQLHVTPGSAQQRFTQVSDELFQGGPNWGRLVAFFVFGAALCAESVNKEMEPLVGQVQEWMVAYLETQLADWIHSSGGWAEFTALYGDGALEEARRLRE

human Bfl-1 = target: T4, human Bfl-1 (human, UniProt Q16548 1-151, limits assumed); assay: fluorescence anisotropy (FIG. 1)
T4 construct: Also used for the Bfl-1 of Pfeiffer cells in the functional rows
T4 sequence (looked up): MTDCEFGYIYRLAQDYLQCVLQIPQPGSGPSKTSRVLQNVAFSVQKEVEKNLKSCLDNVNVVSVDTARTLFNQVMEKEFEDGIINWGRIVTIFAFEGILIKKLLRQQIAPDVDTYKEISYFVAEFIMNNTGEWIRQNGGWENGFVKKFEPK

murine Mcl-1 = murine Mcl-1 (murine, UniProt P97287 1-331, limits assumed); assay: cell-based or functional assay
murine Mcl-1, sequence (P97287 whole entry): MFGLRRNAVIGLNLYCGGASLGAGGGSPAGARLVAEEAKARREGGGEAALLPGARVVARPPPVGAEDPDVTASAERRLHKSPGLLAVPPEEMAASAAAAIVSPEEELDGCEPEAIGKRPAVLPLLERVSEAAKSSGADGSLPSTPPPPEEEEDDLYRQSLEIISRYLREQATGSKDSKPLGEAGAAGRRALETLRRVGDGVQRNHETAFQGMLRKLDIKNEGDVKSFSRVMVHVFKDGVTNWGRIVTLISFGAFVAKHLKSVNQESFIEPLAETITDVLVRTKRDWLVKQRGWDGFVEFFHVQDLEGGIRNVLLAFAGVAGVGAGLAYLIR

T2 sequence (P10415 1-217 limits assumed): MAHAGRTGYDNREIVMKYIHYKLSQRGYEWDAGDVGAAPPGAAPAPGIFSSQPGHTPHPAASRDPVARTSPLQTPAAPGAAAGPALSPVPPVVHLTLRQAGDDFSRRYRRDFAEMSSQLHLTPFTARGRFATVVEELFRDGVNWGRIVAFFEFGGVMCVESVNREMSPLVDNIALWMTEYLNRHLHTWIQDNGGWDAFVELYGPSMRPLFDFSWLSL
T1 sequence (Q07817 1-209): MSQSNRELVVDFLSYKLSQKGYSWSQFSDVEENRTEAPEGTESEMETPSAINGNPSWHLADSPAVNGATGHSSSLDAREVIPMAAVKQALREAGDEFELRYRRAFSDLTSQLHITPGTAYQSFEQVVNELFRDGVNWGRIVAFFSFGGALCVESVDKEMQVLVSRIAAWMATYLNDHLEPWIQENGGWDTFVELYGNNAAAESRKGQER

AELPPEFAAQLRKIGDKVYC [NoxaA BH3 peptide from murine Noxa, unlabeled]
EC50 of mitochondrial depolarization, BH3 profiling, MDA-MB-231 cells (human Bcl-xL [1]): > 100 µM | EC50 of mitochondrial depolarization, BH3 profiling, Bcl-2-dependent line (human Bcl-2 [2]): > 100 µM

RPEIWITQELRRIGDEFNAYYAR (Bim BH3 point mutant) [Bim_A2eT]
fold reduction in binding relative to Bim (human Bcl-xL [3]): 6 fold | fold reduction in binding relative to Bim (human Bcl-2 [4]): > 20 fold | fold reduction in binding relative to Bim (human Bcl-w): > 20 fold | fold reduction in binding relative to Bim (human Bfl-1): > 20 fold

RPEIWITQELRRLGDEFNAYYAR [Bim_A2eT_I3dL]
fold reduction in binding relative to Bim_A2eT (human Bfl-1): 4 fold

RPEIWMTQELRRIGDEFNAYYAR [Bim_A2eT_I2dM]
fold reduction in binding relative to Bim_A2eT (human Bcl-xL [3]): ~4 fold | fold reduction in binding relative to Bim_A2eT (human Bcl-2 [4]): ~4 fold | fold reduction in binding relative to Bim_A2eT (human Bcl-w): ~4 fold | fold reduction in binding relative to Bim_A2eT (human Bfl-1): ~4 fold

RPEIWITQELRRIGDEINAYYAR [Bim_A2eT_F4aI]
fold decrease in binding relative to Bim_A2eT (human Bcl-xL [3]): 6 fold | fold decrease in binding relative to Bim_A2eT (human Bcl-2 [4]): 3 fold

RPEIWMTQGLRRLGDEINAYYAR [MS1, unlabeled]
EC50 of mitochondrial depolarization, BH3 profiling, Mcl-1/Myc 2640 cells (murine Mcl-1): 0.07 µM

RPEIWLTQHLQRLGDEINAYYAR [MS3 as used in BH3 profiling]
EC50 of mitochondrial depolarization, BH3 profiling, MDA-MB-231 cells (human Bcl-xL [1]): > 100 µM | EC50 of mitochondrial depolarization, BH3 profiling, Bcl-2-dependent line (human Bcl-2 [2]): > 100 µM | EC50 of mitochondrial depolarization, BH3 profiling, Mcl-1/Myc 2640 cells (murine Mcl-1): 0.86 µM
